Experimental findings from publication PMC8034652 (Nucleic Acids Research, 2021) are described below.

Numbering of substitutions follows the chain as printed. In names and notes the source's numbering stands.

This series concerns the molecule itself. Put plainly: native gel or EMSA. For orientation: Mobility shift assays separate free from complexed probe on a gel.

B1: FOXO1 R225A mutant (domain or fragment)
chain: KSSSSRRNAWGNLSYADLITKAIESSAEKRLTLSQIYEWMVKSVPYFKDKGDSNSSAGWKNSIRHNLSLHSKFIAVQNEGTGKSSWWMLNPEGGKSGKSPRRRAASMDNNSKFAKS
For B1, the binding result is given as “binds”.

B2: FOXO1 Q227A mutant (domain or fragment)
chain: B1 chain with A75R, Q77A
For the protein B2, the binding result is on record as “binds”.
